Source: publication PMC6220978, “Induced conformational changes activate the peptidoglycan synthase PBP1B” (Molecular Microbiology, 2018)
Where a chain is given by its changes, count along the chain named.

Tests used:
Test in all cases: SPR; PBP1B versions immobilised to the chip surface; LpoB injected from 19.5 nM to 10 μM; apparent KD by non-linear regression, at least three independent experiments
Conditions in all cases: both partners purified
[1] = target: T1, PBP1B N112G (E. coli, UniProt P02919 46-844, N112G)
T1 construct: PBP1B, E. coli, residues 46-844, made by mutagenesis of pDML924; source: E. coli BL21(DE3), purified (membrane extract, HisTrap, thrombin, HiTrap SP ion exchange)
T1 sequence (looked up): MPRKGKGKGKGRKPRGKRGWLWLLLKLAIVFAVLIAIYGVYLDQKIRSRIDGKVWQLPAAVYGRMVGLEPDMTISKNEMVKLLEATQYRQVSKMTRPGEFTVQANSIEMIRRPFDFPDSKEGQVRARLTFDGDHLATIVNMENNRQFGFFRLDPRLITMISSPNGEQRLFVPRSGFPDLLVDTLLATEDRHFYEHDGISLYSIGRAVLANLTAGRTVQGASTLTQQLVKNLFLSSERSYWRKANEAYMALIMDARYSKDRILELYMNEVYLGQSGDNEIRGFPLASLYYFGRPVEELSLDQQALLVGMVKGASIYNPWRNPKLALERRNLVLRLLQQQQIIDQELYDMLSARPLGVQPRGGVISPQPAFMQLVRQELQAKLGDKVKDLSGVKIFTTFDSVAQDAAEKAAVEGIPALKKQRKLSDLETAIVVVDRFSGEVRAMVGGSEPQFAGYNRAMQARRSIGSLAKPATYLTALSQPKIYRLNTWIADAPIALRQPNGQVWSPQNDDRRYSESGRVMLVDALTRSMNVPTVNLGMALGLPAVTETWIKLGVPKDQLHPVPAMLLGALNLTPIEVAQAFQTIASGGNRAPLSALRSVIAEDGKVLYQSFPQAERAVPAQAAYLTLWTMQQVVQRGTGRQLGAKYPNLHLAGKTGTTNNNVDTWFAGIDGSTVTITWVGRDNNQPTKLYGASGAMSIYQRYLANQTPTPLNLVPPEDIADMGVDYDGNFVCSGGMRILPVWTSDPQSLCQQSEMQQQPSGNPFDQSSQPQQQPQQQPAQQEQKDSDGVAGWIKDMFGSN

[2] = target: T2, PBP1B E341A (E. coli, UniProt P02919 46-844, E341A)
T2 construct: PBP1B, E. coli, residues 46-844, made by mutagenesis of pDML924; source: E. coli BL21(DE3), purified (membrane extract, HisTrap, thrombin, HiTrap SP ion exchange)
T2 sequence (looked up): T1 sequence (looked up) with G67N, E296A

[3] = target: T3, PBP1B I202F (E. coli, UniProt P02919 46-844, I202F)
T3 construct: PBP1B, E. coli, residues 46-844, made by mutagenesis of pDML924; Substitution first found in the suppressor screen of Markovski et al. 2016 (LpoB bypass); source: E. coli BL21(DE3), purified (membrane extract, HisTrap, thrombin, HiTrap SP ion exchange)
T3 sequence (looked up): T1 sequence (looked up) with G67N, I157F

- Kd [1]: 356 nM
- Kd [2]: 273 nM
- Kd [3]: 26 nM
B1: LpoB (natural protein, E. coli)
chain: VGQREPAPVEEVKPAPEQPAEPQQPVPTVPSVPTIPQQPGPIEHEDQTAPPAPHIRHYDWNGAMQPMVSKMLGADGVTAGSVLLVDSVNNRTNGSLNAAEATETLRNALANNGKFTLVSAQQLSMAKQQLGLSPQDSLGTRSKAIGIARNVGAHYVLYSSASGNVNAPTLQMQLMLVQTGEIIWSGKGAVSQQ
notes: LpoB, E. coli; also called lipoprotein LpoB; source: E. coli BL21(DE3), purified (HisTrap, Superdex 200), as in Egan et al. 2014
